The values that follow come from US20050181995A1 (NEC SOFT, published 2005).

Positions count from the first letter of the chain named.

The target in assay [1] is T1, KDR-IgG (UniProt P35968 20-764).
T1 construct: Immobilised on CM5 chip by amine coupling; also called KDR-lgG; VEGF receptor 2; not shown: IgG part of the fusion
The assay can be described thus: SPR (BIAcore 3000), KDR-IgG immobilised on CM5 chip.

The target in assay [2] is T1, KDR-IgG. The assay can be described thus: SPR (BIAcore 3000), KDR-IgG immobilised on CM5 chip; kdiss/kass. For orientation: SPR reads the build-up and loss of mass on a sensor chip optically.
Experimental: An apparatus for measurement based on surface plasmon resonance technique: BlAcore 3000 (Biosensor) was used to evaluate the properties of binding to and dissociation from a VEGF receptor as for a VEGF-like protein. Experiment for analysis of the receptor binding was conducted at 25° C. using an HBS buffer (10 mM HEPES, pH 7.4, 150 mM NaCl, 3 mM EDTA, 0.005% polysorbate 20). Flt-1-lgG and KDR-lgG were immobilized on a CM5 sensor chip using an amine coupling kit (Biosensor), respectively.
They were injected into a flow cell at a flow rate of 20 μL/min. A signal from a blank flow channel as a negative control was subtracted as a background signal from the signal from the sample flow channel, for background correction. In the association process, while injecting a solution with the above protein concentration on the sensor chip at the above flow rate, increase in the resonance signal was detected. In the dissociation process, while injecting the above buffer on the sensor chip at the above flow rate, decrease in the resonance signal was measured.
A rate constant for association (kₐₛₛ), a rate constant for dissociation (kdiss) and the maximum binding amount (Rₘₐₓ) for binding to a VEGF receptor in each VEGF-like protein were calculated using a BIA evaluation 3.1 curve fitting software (Biosensor). An apparent dissociation constant (Kd) was calculated as a ratio of the rate constants (kdiss/kₐₛₛ) from the calculated values.
In assay [3] the target is T2, Flt-4 (VEGF receptor type 3) (UniProt P35916 25-776).
T2 construct: Immobilised on CM5 chip; printed without an IgG suffix; also called VEGF receptor 3
T2 sequence: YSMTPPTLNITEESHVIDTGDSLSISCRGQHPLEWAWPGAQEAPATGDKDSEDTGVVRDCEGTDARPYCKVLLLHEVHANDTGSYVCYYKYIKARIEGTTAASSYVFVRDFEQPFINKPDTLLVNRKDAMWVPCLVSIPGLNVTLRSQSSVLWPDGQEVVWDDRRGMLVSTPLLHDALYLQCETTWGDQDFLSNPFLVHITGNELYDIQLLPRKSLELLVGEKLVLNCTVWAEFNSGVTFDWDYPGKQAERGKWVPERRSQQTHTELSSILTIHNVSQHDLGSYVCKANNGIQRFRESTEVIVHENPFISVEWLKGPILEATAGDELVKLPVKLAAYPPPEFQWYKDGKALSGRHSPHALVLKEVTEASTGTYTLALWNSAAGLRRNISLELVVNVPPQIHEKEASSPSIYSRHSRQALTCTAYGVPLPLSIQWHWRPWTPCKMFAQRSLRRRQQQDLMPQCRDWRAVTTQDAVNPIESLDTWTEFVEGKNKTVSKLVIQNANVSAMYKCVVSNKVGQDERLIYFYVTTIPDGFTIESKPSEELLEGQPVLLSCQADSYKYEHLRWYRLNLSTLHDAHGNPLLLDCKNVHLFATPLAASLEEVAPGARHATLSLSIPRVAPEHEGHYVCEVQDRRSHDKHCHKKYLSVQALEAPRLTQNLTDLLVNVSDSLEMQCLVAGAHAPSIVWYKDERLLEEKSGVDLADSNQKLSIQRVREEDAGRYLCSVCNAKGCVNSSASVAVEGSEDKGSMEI
As to the kind of experiment: SPR (BIAcore 3000), receptor immobilised on CM5 chip.

In assay [4] the target is T3, Flt-1-IgG (UniProt P17948 27-687).
T3 construct: Immobilised on CM5 chip by amine coupling; also called Flt-1-lgG; Flt-1-lg; not shown: IgG part of the fusion
The assay can be described thus: SPR (BIAcore 3000), receptor-IgG immobilised on CM5 chip.

T1 sequence (P35968 20-764 limits assumed): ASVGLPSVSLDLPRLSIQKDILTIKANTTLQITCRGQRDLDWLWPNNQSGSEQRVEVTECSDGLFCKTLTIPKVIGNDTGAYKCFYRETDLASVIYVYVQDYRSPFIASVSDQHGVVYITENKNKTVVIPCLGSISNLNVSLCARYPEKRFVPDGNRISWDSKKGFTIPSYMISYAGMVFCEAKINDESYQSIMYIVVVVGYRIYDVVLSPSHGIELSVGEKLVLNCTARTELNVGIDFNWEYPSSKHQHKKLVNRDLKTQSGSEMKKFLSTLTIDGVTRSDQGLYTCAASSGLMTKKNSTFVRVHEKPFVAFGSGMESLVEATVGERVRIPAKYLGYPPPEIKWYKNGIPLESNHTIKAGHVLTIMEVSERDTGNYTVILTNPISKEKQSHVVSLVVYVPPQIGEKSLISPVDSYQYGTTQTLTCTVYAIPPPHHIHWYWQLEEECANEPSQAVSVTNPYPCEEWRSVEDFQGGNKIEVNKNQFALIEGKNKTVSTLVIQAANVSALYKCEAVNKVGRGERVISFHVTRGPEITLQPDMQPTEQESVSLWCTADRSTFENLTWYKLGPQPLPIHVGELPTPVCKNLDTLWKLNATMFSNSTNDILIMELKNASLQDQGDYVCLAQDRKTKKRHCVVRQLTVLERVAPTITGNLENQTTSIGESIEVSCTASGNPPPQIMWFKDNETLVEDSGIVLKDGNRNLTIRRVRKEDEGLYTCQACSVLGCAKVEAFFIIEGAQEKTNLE
T3 sequence (P17948 other isoform, or with tags, fused parts or gaps limits assumed): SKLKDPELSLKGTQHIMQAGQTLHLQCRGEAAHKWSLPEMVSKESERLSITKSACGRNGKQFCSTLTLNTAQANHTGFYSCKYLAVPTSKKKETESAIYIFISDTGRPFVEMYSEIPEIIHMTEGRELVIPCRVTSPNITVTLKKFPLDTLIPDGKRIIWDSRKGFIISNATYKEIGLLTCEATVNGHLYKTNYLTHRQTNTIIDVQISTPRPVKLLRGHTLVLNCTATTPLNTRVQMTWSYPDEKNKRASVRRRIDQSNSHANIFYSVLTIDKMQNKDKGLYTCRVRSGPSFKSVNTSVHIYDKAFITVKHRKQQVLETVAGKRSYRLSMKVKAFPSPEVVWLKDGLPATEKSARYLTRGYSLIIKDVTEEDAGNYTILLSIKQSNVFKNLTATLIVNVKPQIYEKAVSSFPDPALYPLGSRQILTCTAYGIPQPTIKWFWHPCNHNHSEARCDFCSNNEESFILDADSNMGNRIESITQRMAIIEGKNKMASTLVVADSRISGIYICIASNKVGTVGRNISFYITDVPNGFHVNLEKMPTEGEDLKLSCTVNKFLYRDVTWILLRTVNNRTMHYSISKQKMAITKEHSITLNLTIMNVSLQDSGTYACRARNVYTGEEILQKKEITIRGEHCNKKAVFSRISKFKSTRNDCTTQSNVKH

B1: vammin (VEGF-like protein purified from the venom of Vipera ammodytes ammodytes) (ligand)
chain: EVRPFLEVHERSACQARETLVPILQEYPDEISDIFRPSCVAVLRCSGCCTDESLKCTPVGKHTVDLQIMRVNPRTQSSKMEVMKFTEHTACECRPRRKQGEPDGPKEKPR
modifications: pyrrolidone ring at N-terminus (opened with methanol-hydrochloric acid for sequencing)
notes: also called vammin protein
Broadly, the koff is the first-order rate constant of dissociation. Read a low koff as slow dissociation. By kon is commonly meant the rate constant with which the complex forms. One may read the Kd as a measure of binding affinity in units of concentration. In assay [1], B1 yielded a koff of 4.6e-06 s⁻¹ and a kon of 11200 M⁻¹ s⁻¹. In addition, in assay [2], the Kd was determined as 0.411 nM. Further, in assay [3], the binding result is reported as “no binding (tested: 500 nM)”. Besides, the binding result in assay [4] is “no binding (tested: 3, 10 and 30 nM)”.

B2: HF (hypotensive factor from the venom of Vipera aspis aspis) (ligand)
chain: B1 chain with P22S
notes: also called HF protein
Take B2: in assay [1], the koff came to 9.6e-06 s⁻¹ and the association rate constant (kon) came out at 28800 M⁻¹ s⁻¹. In assay [2], this molecule showed a Kd of 0.334 nM. In addition, the binding result in assay [4] is “no binding (tested: 3, 10 and 30 nM)”.

B3: VR-1 (VEGF-like protein purified from the venom of Daboia russelli russelli) (ligand)
chain: EVRPFLDVYQRSACQTRETLVSILQEHPDEISDIFRPSCVAVLRCSGCCTDESMKCTPVGKHTADIQIMRMNPRTHSSKMEVMKFMEHTACECRPRWKQGEPEGPKEPR
modifications: pyrrolidone ring at N-terminus (opened with methanol-hydrochloric acid for sequencing)
notes: also called VR-1 protein
In assay [1], B3 had a koff of 1.29e-05 s⁻¹ and a kon of 39000 M⁻¹ s⁻¹. In assay [2], this molecule gave a Kd of 0.332 nM. Moreover, the binding result in assay [4] is “no binding (tested: 3, 10 and 30 nM)”.
